Source: the Immune Epitope Database (IEDB)

Key:
Assay in all cases: IEDB peptide-MHC binding, purified MHC/competitive/radioactivity; filed as Kd, often an IC50 or EC50 that approximates it; ≥ and ≤ were set here for values at or beyond the usual limits of such assays
HLA-A*31:01 = target: HLA-A*31:01
HLA-A*33:01 = target: HLA-A*33:01
HLA-A*68:01 = target: HLA-A*68:01
HLA-A*11:01 = target: HLA-A*11:01
HLA-A*03:01 = target: HLA-A*03:01
HLA-A*02:03 = conditions: source organism: Dengue virus 4 Philippines/H241/1956
HLA-A*02:06 = conditions: source organism: Homo sapiens
[1] = source organism: Vaccinia virus WR
[2] = source organism: Triticum aestivum
[3] = source organism: Lassa virus Josiah
[4] = source organism: SARS coronavirus Tor2
[5] = source organism: Vaccinia virus Copenhagen
[6] = source organism: Mammarenavirus guanaritoense

| Sequence | Kd (HLA-A*31:01; [1]) | Kd (HLA-A*33:01; [1]) | Kd (HLA-A*68:01; [1]) | Kd (HLA-A*11:01; [1]) | Kd (HLA-A*03:01; [1]) | other results |
| --- | --- | --- | --- | --- | --- | --- |
| KSIENKHQRR | 0.608 nM | 9320 nM | 11200 nM | 198 nM | 11100 nM | – |
| DMQKFTILEY | ≥ 70000 nM | ≥ 70000 nM | ≥ 24500 nM | 3530 nM | ≥ 53500 nM | – |
| TSCSKNEAEK | 5740 nM | ≥ 70000 nM | 385 nM | 165 nM | 3800 nM | – |
| HAIILHQQQK | – | – | – | – | – | Kd (HLA-A*31:01; [2]): 11000 nM; Kd (HLA-A*33:01; [2]): ≥ 44400 nM; Kd (HLA-A*68:01; [2]): 10.4 nM; Kd (HLA-A*11:01; [2]): 1130 nM; Kd (HLA-A*03:01; [2]): 1270 nM |
| RLASMAICSA | – | – | – | – | – | Kd (HLA-A*02:03): 24.5 nM |
| YLSDSDNIK | ≥ 77900 nM | ≥ 50700 nM | 1120 nM | 8570 nM | 2600 nM | – |
| YSGLTPEQK | 16200 nM | ≥ 53000 nM | 494 nM | 497 nM | 18800 nM | – |
| TLATGPVLTL | – | – | – | – | – | Kd (HLA-A*02:03): 28.3 nM |
| NYSKYWYLNH | – | – | – | – | – | Kd (HLA-A*31:01; [3]): 1480 nM; Kd (HLA-A*33:01; [3]): 863 nM; Kd (HLA-A*68:01; [3]): ≥ 70100 nM; Kd (HLA-A*11:01; [3]): ≥ 21800 nM; Kd (HLA-A*03:01; [3]): ≥ 70000 nM |
| YIYSEIKQGR | 16.5 nM | 853 nM | 6.39 nM | 11600 nM | 1650 nM | – |
| DSEPISILDR | ≥ 52800 nM | 4620 nM | 518 nM | ≥ 61400 nM | ≥ 70100 nM | – |
| KTNDINVRR | 2.24 nM | 16700 nM | 12.1 nM | 30.1 nM | 112 nM | – |
| TVVRDFENY | ≥ 77900 nM | ≥ 77700 nM | 1100 nM | 1210 nM | ≥ 63000 nM | – |
| LTDTIESAK | 8.11 nM | 3.04 nM | 25.7 nM | 125 nM | 1070 nM | – |
| ELVKHGLRAL | – | – | – | – | – | Kd (HLA-A*02:06): ≥ 43400 nM |
| LITLILSNK | 2080 nM | 6720 nM | 32.7 nM | 19 nM | 20.9 nM | – |
| YIAVANCVR | 14.2 nM | 284 nM | 6.73 nM | 13900 nM | ≥ 78000 nM | – |

| Sequence | Kd (HLA-A*31:01; [1]) | Kd (HLA-A*33:01; [1]) | Kd (HLA-A*68:01; [1]) | Kd (HLA-A*11:01; [1]) | Kd (HLA-A*03:01; [1]) | other results |
| --- | --- | --- | --- | --- | --- | --- |
| SAGAGVLDK | ≥ 26600 nM | ≥ 77700 nM | 3350 nM | 316 nM | 243 nM | – |
| EAVYGNIKHK | 13900 nM | ≥ 70000 nM | 62.3 nM | 11700 nM | 18700 nM | – |
| ALCTLLHLHR | – | – | – | – | – | Kd (HLA-A*31:01; [4]): 51 nM; Kd (HLA-A*33:01; [4]): 401 nM; Kd (HLA-A*68:01; [4]): 3410 nM; Kd (HLA-A*11:01; [4]): 470 nM; Kd (HLA-A*03:01; [4]): 301 nM |
| LIDTTSRELK | 147 nM | 716 nM | 432 nM | 162 nM | 38.9 nM | – |
| AAYYFMKFR | – | – | – | – | – | Kd (HLA-A*31:01; [4]): 1.23 nM; Kd (HLA-A*33:01; [4]): 117 nM; Kd (HLA-A*68:01; [4]): 15.4 nM; Kd (HLA-A*11:01; [4]): 47.2 nM; Kd (HLA-A*03:01; [4]): 124 nM |
| ASCDAIMTR | – | – | – | – | – | Kd (HLA-A*31:01; [4]): 81.3 nM; Kd (HLA-A*33:01; [4]): 83.5 nM; Kd (HLA-A*68:01; [4]): 1440 nM; Kd (HLA-A*11:01; [4]): 79.4 nM; Kd (HLA-A*03:01; [4]): 19400 nM |
| LSSIKSKSR | 755 nM | 1570 nM | 612 nM | 4160 nM | 3070 nM | – |
| KSTSPTRTWK | – | – | – | – | – | Kd (HLA-A*31:01; [5]): 101 nM; Kd (HLA-A*33:01; [5]): 6860 nM; Kd (HLA-A*68:01; [5]): 472 nM; Kd (HLA-A*11:01; [5]): 21.7 nM; Kd (HLA-A*03:01; [5]): 11.1 nM |
| LVTRKCPQK | 1320 nM | 5110 nM | 19.3 nM | 17.3 nM | 63 nM | – |
| FFTELENKK | ≥ 25700 nM | ≥ 30900 nM | 3360 nM | 6190 nM | ≥ 78000 nM | – |
| NSYSLIRLSH | – | – | – | – | – | Kd (HLA-A*31:01; [6]): 9770 nM; Kd (HLA-A*33:01; [6]): 3250 nM; Kd (HLA-A*68:01; [6]): 10200 nM; Kd (HLA-A*11:01; [6]): ≥ 24600 nM; Kd (HLA-A*03:01; [6]): 9960 nM |
| IQLDEKSSIK | 81.1 nM | ≥ 70000 nM | 551 nM | 4.57 nM | 1.25 nM | – |
| FSGKSTELIR | 1920 nM | 1790 nM | 881 nM | 17100 nM | ≥ 38100 nM | – |
| LFSTSAADIK | ≥ 70000 nM | ≥ 70000 nM | 57.8 nM | 4790 nM | 19600 nM | – |
| NIKPSKENR | 545 nM | 338 nM | 10.5 nM | ≥ 30400 nM | 7390 nM | – |
| TLLPLTQYNR | – | – | – | – | – | Kd (HLA-A*31:01; [4]): 1340 nM; Kd (HLA-A*33:01; [4]): 4590 nM; Kd (HLA-A*68:01; [4]): 3410 nM; Kd (HLA-A*11:01; [4]): 8140 nM; Kd (HLA-A*03:01; [4]): 7220 nM |
| NYTRFWYINH | – | – | – | – | – | Kd (HLA-A*31:01; [6]): 1340 nM; Kd (HLA-A*33:01; [6]): 48.8 nM; Kd (HLA-A*68:01; [6]): 4140 nM; Kd (HLA-A*11:01; [6]): 12300 nM; Kd (HLA-A*03:01; [6]): 9020 nM |
